Assay results as given in patent US20030203372A1, “Analysis method” (priority 2000, published 2003).

Experiments:
[1] = system: primary human cell cultures (11 cell types); assay: Custom gene array, 11 human cell types in normoxia or hypoxia for 6 hr and 18 hr; type: cell-based;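 for mRNA expression level, #1 HY 18 hr: cell type #1 is adipocyte from subcutaneous adult adipose tissue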;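 for mRNA expression level, #1 HY 6 hr: cell type #1 is adipocyte from subcutaneous adult adipose tissue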;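 for mRNA expression level, #1 NO: cell type #1 is adipocyte from subcutaneous adult adipose tissue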;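 for mRNA expression level, #2 HY 18 hr: cell type #2 is fetal cardiomyocyte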;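 for mRNA expression level, #2 HY 6 hr: cell type #2 is fetal cardiomyocyte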;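 for mRNA expression level, #2 NO: cell type #2 is fetal cardiomyocyte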;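 for mRNA expression level, #3 HY 6 hr: cell type #3 is human umbilical vein endothelial cells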;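 for mRNA expression level, #3 NO: cell type #3 is human umbilical vein endothelial cells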;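 for mRNA expression level, #4 HY 18 hr: cell type #4 is adult dermal fibroblast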;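 for mRNA expression level, #4 HY 6 hr: cell type #4 is adult dermal fibroblast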;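 for mRNA expression level, #4 NO: cell type #4 is adult dermal fibroblast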;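 for mRNA expression level, #5 HY 6 hr: cell type #5 is adult hepatocyte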;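 for mRNA expression level, #5 NO: cell type #5 is adult hepatocyte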;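 for mRNA expression level, #6 HY 6 hr: cell type #6 is blood-derived macrophage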;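 for mRNA expression level, #6 NO: cell type #6 is blood-derived macrophage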
In short: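 Values are each gene's expression relative to its median over all cell types and conditions, after per-array normalisation to control genes and merging of replicate arrays. Cells were 11 human types, mostly unmodified primary cultures, kept in normoxia or exposed to hypoxia for 6 hr or 18 hr.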

[2] = system: human macrophages; assay: Custom gene array, macrophages with no cytokines, IL-10 or LPS + IFN, in normoxia and hypoxia; type: cell-based; conditions: for mRNA EXPRESSION (experimental condition) #1: #1 no cytokines/normoxia; for mRNA EXPRESSION (experimental condition) #2: #2 no cytokines/hypoxia; for mRNA EXPRESSION (experimental condition) #3: #3 IL-10/normoxia; for mRNA EXPRESSION (experimental condition) #4: #4 IL-10/hypoxia; for mRNA EXPRESSION (experimental condition) #5: #5 LPS/IFN/normoxia; for mRNA EXPRESSION (experimental condition) #6: #6 LPS/IFN/hypoxia
In short: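 Cultured macrophages were left untreated or given IL-10 or LPS + IFN, each at 100 ng/ml final, for 6 hr under normoxia or hypoxia (0.1% oxygen). Six conditions in total.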

[3] = system: human breast and ovary tumors; assay: Custom gene array, breast and ovary tumors versus normal adjacent tissue; conditions: Table 19; for gene expression level on custom gene array, Breast nor H / gene expression level on custom gene array, Breast nor K / gene expression level on custom gene array, Ovary nor E / gene expression level on custom gene array, Ovary nor F / gene expression level on custom gene array, Ovary nor G: normal adjacent tissue; for gene expression level on custom gene array, Breast nor H / gene expression level on custom gene array, Breast tum H: patient H; for gene expression level on custom gene array, Breast nor K / gene expression level on custom gene array, Breast tum K: patient K; for gene expression level on custom gene array, Breast tum H / gene expression level on custom gene array, Breast tum K / gene expression level on custom gene array, Ovary tum E / gene expression level on custom gene array, Ovary tum F / gene expression level on custom gene array, Ovary tum G: tumor tissue; for gene expression level on custom gene array, Ovary nor E / gene expression level on custom gene array, Ovary tum E: patient E; for gene expression level on custom gene array, Ovary nor F / gene expression level on custom gene array, Ovary tum F: patient F; for gene expression level on custom gene array, Ovary nor G / gene expression level on custom gene array, Ovary tum G: patient G
In short: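 Values are per-gene relative to that gene's median across the series, after per-chip normalisation for labelling and hybridization efficiency. Samples: breast and ovary tumors with normal tissue from 5 patients of varied diagnoses, mostly from the same individual (one age-matched separate donor), compared within patient.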

[4] = Table 16, referenced to median of the gene over 6 conditions
[5] = Table 15, referenced to the median value of that gene throughout all 6 conditions

B1: p1E4 (nucleic acid, listed as Homo Sapiens)
DNA: AATTATATATTACATGTTTATTAAGAGCACAACTTTTATGTAAAATTTACATTTAATGAAAAAAATCAAAAATATTTACAAAATCTTGGAAGACAGATGTGCATTGTTCTAATTACAATCCAAAGTAGTAAATAACAATCCTTTAAAACTCACATTTATTAGAGTTGTGTTTACAAATTCTTGGTTAAAGAGGCAGCTACAAAGTTTACCACTATATATAAGCAAGAACCAGCTTGCTAGGTACATTTCCCATTGAAAATCTACTGGTCTCTTTTACACCATTAGTGGATTTTTAAATGGAAAAAAAAAATCAATATAAACTCATATGGCTTCAAAATTGTA
modifications: EST array clone
With B1 the “mRNA expression level, #1 HY 6 hr” value ([1]; cell type #1, hypoxia 6 hr) was 0.51, the “mRNA expression level, #1 HY 18 hr” value ([1]; cell type #1, hypoxia 18 hr) was 0.79 and the “mRNA expression level, #1 NO” value ([1]; cell type #1, normoxia) was 0.65. The “mRNA expression level, #2 HY 6 hr” value ([1]; cell type #2, hypoxia 6 hr) was 1.24, the “mRNA expression level, #2 HY 18 hr” value ([1]; cell type #2, hypoxia 18 hr) was 1.18 and the “mRNA expression level, #2 NO” value ([1]; cell type #2, normoxia) was 1.06. For the same molecule, the “mRNA expression level, #3 HY 6 hr” value ([1]; cell type #3, hypoxia 6 hr) was 1.57, the “mRNA expression level, #3 HY 18 hr” value ([1]; cell type #3, hypoxia 18 hr) was 1.70 and the “mRNA expression level, #3 NO” value ([1]; cell type #3, normoxia) was 1.59. The “mRNA expression level, #4 HY 6 hr” value ([1]; cell type #4, hypoxia 6 hr) was 0.76, the “mRNA expression level, #4 HY 18 hr” value ([1]; cell type #4, hypoxia 18 hr) was 0.91 and the “mRNA expression level, #4 NO” value ([1]; cell type #4, normoxia) was 0.80. For the same molecule, the “mRNA expression level, #5 HY 6 hr” value ([1]; cell type #5, hypoxia 6 hr) was 0.39, the “mRNA expression level, #5 NO” value ([1]; cell type #5, normoxia) was 0.34 and the “mRNA expression level, #6 HY 6 hr” value ([1]; cell type #6, hypoxia 6 hr) was 1.13. The “#6 HY 18 hr (mRNA expression level)” value ([1]; cell type #6, hypoxia 18 hr) was 1.21, the “mRNA expression level, #6 NO” value ([1]; cell type #6, normoxia) was 0.97 and the “#7 HY 6 hr (mRNA expression level)” value ([1]; cell type #7, hypoxia 6 hr) was 1.17. For the same molecule, the “#7 HY 18 hr (mRNA expression level)” value ([1]; cell type #7, hypoxia 18 hr) was 0.82, the “#7 NO (mRNA expression level)” value ([1]; cell type #7, normoxia) was 1.65 and the “#8 HY 6 hr (mRNA expression level)” value ([1]; cell type #8, hypoxia 6 hr) was 1.28. The “#8 HY 18 hr (mRNA expression level)” value ([1]; cell type #8, hypoxia 18 hr) was 1.71, the “#8 NO (mRNA expression level)” value ([1]; cell type #8, normoxia) was 0.74 and the “#9 HY 6 hr (mRNA expression level)” value ([1]; cell type #9, hypoxia 6 hr) was 0.97. The “#9 HY 18 hr (mRNA expression level)” value ([1]; cell type #9, hypoxia 18 hr) was 0.93, the “#9 NO (mRNA expression level)” value ([1]; cell type #9, normoxia) was 0.95 and the “#10 HY 6 hr (mRNA expression level)” value ([1]; cell type #10, hypoxia 6 hr) was 1.35. The “#10 HY 18 hr (mRNA expression level)” value ([1]; cell type #10, hypoxia 18 hr) was 1.44, the “#10 NO (mRNA expression level)” value ([1]; cell type #10, normoxia) was 0.78 and the “#11 HY 6 hr (mRNA expression level)” value ([1]; cell type #11, hypoxia 6 hr) was 1.48. For the same molecule, the “#11 HY 18 hr (mRNA expression level)” value ([1]; cell type #11, hypoxia 18 hr) was 1.35, the “#11 NO (mRNA expression level)” value ([1]; cell type #11, normoxia) was 1.30 and the “HIGHEST FOLD CHANGE IN HYPOXIA (hr hypoxia + cell type)” value ([1]; hypoxia/normoxia induction ratio, 18 hr monocyte) was 2.31 (18 hr monocyte) fold. The “mRNA EXPRESSION (experimental condition) #1” value [2, 4] was 1.22, the “mRNA EXPRESSION (experimental condition) #2” value [2, 4] was 1.13 and the “mRNA EXPRESSION (experimental condition) #3” value [2, 4] was 1.09. For the same molecule, the “mRNA EXPRESSION (experimental condition) #4” value [2, 4] was 0.96, the “mRNA EXPRESSION (experimental condition) #5” value [2, 4] was 0.40 and the “mRNA EXPRESSION (experimental condition) #6” value [2, 4] was 0.40. For the same molecule, the “gene expression level on custom gene array, Breast nor H” value [3] was 1.00, the “gene expression level on custom gene array, Breast nor K” value [3] was 1.06 and the “gene expression level on custom gene array, Breast tum H” value [3] was 0.69. For the same molecule, the “gene expression level on custom gene array, Breast tum K” value [3] was 0.46, the “gene expression level on custom gene array, Ovary nor E” value [3] was 1.30 and the “gene expression level on custom gene array, Ovary nor F” value [3] was 0.88. The “gene expression level on custom gene array, Ovary nor G” value [3] was 0.70, the “gene expression level on custom gene array, Ovary tum E” value [3] was 1.67 and the “gene expression level on custom gene array, Ovary tum F” value [3] was 0.65. The “gene expression level on custom gene array, Ovary tum G” value [3] was 0.17.

B2: p1F24 (nucleic acid, listed as Homo Sapiens)
DNA: ATGAACTGGCATCTCCCCCTCTTCCTCTTGGCCTCTGTGACGCTGCCTTCCATCTGCTCCCACTTCAATCCTCTGTCTCTCGAGGAACTAGGCTCCAACACGGGGATCCAGGTTTTCAATCAGATTGTGAAGTCGAGGCCTCATGACAACATCGTGATCTCTCCCCATGGGATTGCGTCGGTCCTGGGGATGCTTCAGCTGGGGGCGGACGGCAGGACCAAGAAGCAGCTCGCCATGGTGATGAGATACGGCGTAAATGGAGTTGGTAAAATATTAAAGAAGATCAACAAGGCCATCGTCTCCAAGAAGAATAAAGACATTGTGACAGTGGCTAACGCCGTGTTTGTTAAGAATGCCTCTGAAATTGAAGTGCCTTTTGTTACAAGGAACAAAGATGTGTTCCAGTGTGAGGTCCGGAATGTGAACTTTGAGGATCCAGCCTCTGCCTGTGATTCCATCAATGCATGGGTTAAAAACGAAACCAGGGATATGATTGACAATCTGCTGTCCCCAGATCTTATTGATGGTGTGCTCACCAGACTGGTCCTCGTCAACGCAGTGTATTTCAAGGGTCTGTGGAAATCACGGTTCCAACCCGAGAACACAAAGAAACGCACTTTCGTGGCAGCCGACGGGAAATCCTATCAAGTGCCAATGCTGGCCCAGCTCTCCGTGTTCCGGTGTGGGTCGACAAGTGCCCCCAATGATTTATGGTACAACTTCATTGAACTGCCCTACCACGGGGAAAGCATCAGCATGCTGATTGCACTGCCGACTGAGAGCTCCACTCCGCTGTCTGCCATCATCCCACACATCAGCACCAAGACCATAGACAGCTGGATGAGCATCATGGTCCCCAAGAGGGTGCAGGTGATCCTGCCCAAGTTCACAGCTGTAGCACAAACAGATTTGAAGGAGCCGCTGAAAGTTCTTGGCATTACTGACATGTTTGATTCATCAAAGGCAAATTTTGCAAAAATAACAAGGTCAGAAAACCTCCATGTTTCTCATATCTTGCAAAAAGCAAAAATTGAAGTCAGTGAAGATGGAACCAAAGCTTCAGCAGCAACAACTGCAATTCTCATTGCAAGATCATCGCCTCCCTGGTTTATAGTAGACAGACCTTTTCTGTTTTTCATCCGACATAATCCTACAGGTGCTGTGTTATTCATGGGGCAGATAAACAAACCC
Molecule B2 has a mRNA expression level ([1]; cell type #1, HY (hypoxia) 6 hr) of 0.70, a mRNA expression level ([1]; cell type #1, HY (hypoxia) 18 hr) of 1.01 and a mRNA expression level ([1]; cell type #1, NO (normoxia)) of 1.17. The mRNA expression level ([1]; cell type #2, HY (hypoxia) 6 hr) was 5.52, the mRNA expression level ([1]; cell type #2, HY (hypoxia) 18 hr) was 8.15 and the mRNA expression level ([1]; cell type #2, NO (normoxia)) was 9.63. The mRNA expression level ([1]; cell type #3, HY (hypoxia) 6 hr) was 0.87, the mRNA expression level ([1]; cell type #3, HY (hypoxia) 18 hr) was 0.56 and the mRNA expression level ([1]; cell type #3, NO (normoxia)) was 0.56. The mRNA expression level ([1]; cell type #4, HY (hypoxia) 6 hr) was 11.5, the mRNA expression level ([1]; cell type #4, HY (hypoxia) 18 hr) was 14.2 and the mRNA expression level ([1]; cell type #4, NO (normoxia)) was 12.8. For the same molecule, the mRNA expression level ([1]; cell type #5, HY (hypoxia) 6 hr) was 0.15, the mRNA expression level ([1]; cell type #5, NO (normoxia)) was 0.12 and the mRNA expression level ([1]; cell type #6, HY (hypoxia) 6 hr) was 0.14. For the same molecule, the mRNA expression level ([1]; cell type #6, NO (normoxia)) was 0.11, the “mRNA EXPRESSION (experimental condition) #1” value [2, 5] was 0.65 and the “mRNA EXPRESSION (experimental condition) #2” value [2, 5] was 0.68. The “mRNA EXPRESSION (experimental condition) #3” value [2, 5] was 0.99, the “mRNA EXPRESSION (experimental condition) #4” value [2, 5] was 1.10 and the “mRNA EXPRESSION (experimental condition) #5” value [2, 5] was 1.62. For the same molecule, the “mRNA EXPRESSION (experimental condition) #6” value [2, 5] was 1.80, the “gene expression level on custom gene array, Breast nor H” value [3] was 1.64 and the “gene expression level on custom gene array, Breast nor K” value [3] was 1.25. For the same molecule, the “gene expression level on custom gene array, Breast tum H” value [3] was 1.89, the “gene expression level on custom gene array, Breast tum K” value [3] was 0.96 and the “gene expression level on custom gene array, Ovary nor E” value [3] was 3.17. For the same molecule, the “gene expression level on custom gene array, Ovary nor F” value [3] was 3.24, the “gene expression level on custom gene array, Ovary nor G” value [3] was 1.26 and the “gene expression level on custom gene array, Ovary tum E” value [3] was 0.93. The “gene expression level on custom gene array, Ovary tum F” value [3] was 0.85 and the “gene expression level on custom gene array, Ovary tum G” value [3] was 0.80.
